# Reference: patent US7659073 (HYBRITECH, dated 2010)
# T1: α1-antichymotrypsin (ACT) (UniProt P01011 24-423)
# T1 sequence (looked up): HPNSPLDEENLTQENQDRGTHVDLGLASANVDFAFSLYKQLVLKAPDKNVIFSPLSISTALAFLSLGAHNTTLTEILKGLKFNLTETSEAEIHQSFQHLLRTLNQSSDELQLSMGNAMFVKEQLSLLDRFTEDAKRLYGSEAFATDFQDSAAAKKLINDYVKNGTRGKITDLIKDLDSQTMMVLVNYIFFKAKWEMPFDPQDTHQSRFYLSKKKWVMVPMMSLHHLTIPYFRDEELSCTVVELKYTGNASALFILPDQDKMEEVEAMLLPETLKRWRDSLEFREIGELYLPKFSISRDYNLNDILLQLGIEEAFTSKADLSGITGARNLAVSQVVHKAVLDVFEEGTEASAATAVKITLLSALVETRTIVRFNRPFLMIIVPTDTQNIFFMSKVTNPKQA
# B1: [-4]pPSA (enzyme)
# chain: not shown
# notes: Recombinant from AV12 cells; also found in pooled prostate cancer serum; also called [-4]proPSA
# B2: [-2]pPSA (enzyme)
# chain: not shown
# notes: It is mature PSA preceded by the leader SR; also called [-2]proPSA
# B3: [-7]pPSA (enzyme)
# chain: not shown
# notes: The purified peak holds about equal levels of [-7]pPSA and [-5]pPSA, which are not resolved from each other; also called [-7]proPSA; full length [-7]pPSA
# B4: [-5]pPSA (enzyme)
# chain: not shown
# notes: Not resolved from [-7]pPSA by HIC-HPLC; tested as an about equal mixture with [-7]pPSA; also called [-5]proPSA; part of the [-5/-7]pPSA peak
# Tests used:
# [1] = molecular target: T1, α1-antichymotrypsin (ACT); experiment: incubation with ACT, HIC-HPLC profile
# [2] = molecular target: T1, α1-antichymotrypsin (ACT); experiment: incubation with ACT for two hours at 37° C., HIC-HPLC profile
# Experimental: High performance hydrophobic interaction chromatography (HIC-HPLC) was performed using a polypropylaspartamide column (PolyLC, distributed by Western Analytical, Temecula, Calif.). The column was 4.6×250 mm in length with a 1000 Å pore size. Samples were applied in 1.5 M ammonium sulfate and eluted with a gradient: Buffer A: 1.2 M sodium sulfate, 25 mM sodium phosphate, pH 6.3, and Buffer B: 50 mM sodium phosphate, 5% v/v 2-propanol. The gradient was […], 1 min, 30-80% B, 12 min, then isocratic at 80% B for 2 min before equilibration in Buffer A. High sensitivity peak detection was obtained with a Varian Model 9070 scanning fluorescence detector using an excitation of 232 nm and emission of 334 nm to detect the tryptophan residues in protein.
# To confirm that the pro forms of PSA are not reactive with ACT, a mixture of purified mature PSA, [−4]pPSA and [−7, −5]pPSA, were incubated with ACT. […] Only the mature PSA forms an ACT complex.
binder,measurement,setting,value
B1,binding result,[1],no binding (tested: 4× excess of ACT)
B2,binding result,[1],no binding (tested: 4× excess of ACT)
B3,binding result,[2],no binding
B4,binding result,[1],no binding (tested: 4× excess of ACT)
